Results from the supplement of paper PMC10567573.

B1: TRIM43 (parent)
chain: NNSWIRKNSTMVNSEDIFLLLCLK

Variants of: B1
Assay: protein stability index of a GFP-peptide fusion (GPS, HEK-293T) (PSI 1-6); higher = more stable
Details: c terminus: a fixed tail appended
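Note: lentivirally expressed fusions sorted by FACS into six bins by GFP to DsRed ratio, PSI derived from sequencing read proportions per bin multiplied by bin number.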

| Variant | protein stability index |
| --- | --- |
| NNSWIRKNKTMVNSEDIFLLLCLK | 2.54 |
| NNSWIRKNDTMVNSEDIFLLLCLK | 3.01 |
| NNSWIRKNFTMVNSEDIFLLLCLK | 2.03 |
| NNSWIRKNMTMVNSEDIFLLLCLK | 2.34 |
| NNSWIRKNRTMVNSEDIFLLLCLK | 2.62 |
| NNSWIRKNGTMVNSEDIFLLLCLK | 2.66 |
| NNSWIRKNATMVNSEDIFLLLCLK | 2.99 |
| NNSWIRKNTTMVNSEDIFLLLCLK | 2.62 |
| NNSWIRKNNTMVNSEDIFLLLCLK | 2.49 |
| NNSWIRKNLTMVNSEDIFLLLCLK | 3.2 |
| NNSWIRKNYTMVNSEDIFLLLCLK | 3.67 |
| NNSWIRKNITMVNSEDIFLLLCLK | 3.83 |
| NNSWIRKNWTMVNSEDIFLLLCLK | 4.39 |
| NNSWIRKNETMVNSEDIFLLLCLK | 2.68 |
| NNSWIRKNVTMVNSEDIFLLLCLK | 2.19 |
| NNSWIRKNQTMVNSEDIFLLLCLK | 2.69 |
| NNSWIRKNHTMVNSEDIFLLLCLK | 2.91 |
| NNSWIRKNPTMVNSEDIFLLLCLK | 3.63 |
| NNSWIRKNCTMVNSEDIFLLLCLK | 2.28 |
| NNSWIRKNSDMVNSEDIFLLLCLK | 1.98 |
| NNSWIRKNSKMVNSEDIFLLLCLK | 3.25 |
| NNSWIRKNSLMVNSEDIFLLLCLK | 2.55 |
| NNSWIRKNSRMVNSEDIFLLLCLK | 2.52 |
| NNSWIRKNSVMVNSEDIFLLLCLK | 1.95 |

| Variant | protein stability index |
| --- | --- |
| NNSWIRKNSNMVNSEDIFLLLCLK | 2.17 |
| NNSWIRKNSGMVNSEDIFLLLCLK | 2.9 |
| NNSWIRKNSEMVNSEDIFLLLCLK | 2.91 |
| NNSWIRKNSMMVNSEDIFLLLCLK | 2.48 |
| NNSWIRKNSYMVNSEDIFLLLCLK | 3.22 |
| NNSWIRKNSHMVNSEDIFLLLCLK | 3.31 |
| NNSWIRKNSIMVNSEDIFLLLCLK | 4.37 |
| NNSWIRKNSFMVNSEDIFLLLCLK | 3.41 |
| NNSWIRKNSQMVNSEDIFLLLCLK | 3.06 |
| NNSWIRKNSCMVNSEDIFLLLCLK | 2.73 |
| NNSWIRKNSSMVNSEDIFLLLCLK | 3.33 |
| NNSWIRKNSPMVNSEDIFLLLCLK | 2.82 |
| NNSWIRKNSWMVNSEDIFLLLCLK | 4.55 |
| NNSWIRKPSTMVNSEDIFLLLCLK | 2.28 |
| NNSWIRKISTMVNSEDIFLLLCLK | 2.73 |
| NNSWIRKRSTMVNSEDIFLLLCLK | 3.47 |
| NNSWIRKCSTMVNSEDIFLLLCLK | 2.24 |
| NNSWIRKYSTMVNSEDIFLLLCLK | 3.85 |
| NNSWIRKKSTMVNSEDIFLLLCLK | 2.4 |
| NNSWIRKHSTMVNSEDIFLLLCLK | 1.79 |
| NNSWIRKTSTMVNSEDIFLLLCLK | 3.13 |
| NNSWIRKQSTMVNSEDIFLLLCLK | 2.93 |
| NNSWIRKVSTMVNSEDIFLLLCLK | 1.94 |
| NNSWIRKESTMVNSEDIFLLLCLK | 3.74 |

| Variant | protein stability index |
| --- | --- |
| NNSWIRKASTMVNSEDIFLLLCLK | 2.9 |
| NNSWIRKWSTMVNSEDIFLLLCLK | 2.99 |
| NNSWIRKDSTMVNSEDIFLLLCLK | 3.07 |
| NNSWIRKLSTMVNSEDIFLLLCLK | 2.61 |
| NNSWIRKSSTMVNSEDIFLLLCLK | 2.69 |
| NNSWIRKMSTMVNSEDIFLLLCLK | 2.46 |
| NNSWIRKGSTMVNSEDIFLLLCLK | 2.72 |
| NNSWIRKNSTDVNSEDIFLLLCLK | 2.95 |
| NNSWIRKNSTAVNSEDIFLLLCLK | 2.1 |
| NNSWIRKNSTFVNSEDIFLLLCLK | 2.54 |
| NNSWIRKNSTCVNSEDIFLLLCLK | 2.06 |
| NNSWIRKNSTEVNSEDIFLLLCLK | 1.74 |
| NNSWIRQNSTMVNSEDIFLLLCLK | 2.47 |
| NNSWIRVNSTMVNSEDIFLLLCLK | 2.61 |
| NNSWIRMNSTMVNSEDIFLLLCLK | 2.73 |
| NNSWIRFNSTMVNSEDIFLLLCLK | 2.97 |
| NNSWIRANSTMVNSEDIFLLLCLK | 4.36 |
| NNSWIRTNSTMVNSEDIFLLLCLK | 2.16 |
| NNSWIRSNSTMVNSEDIFLLLCLK | 2.95 |
| NNSWIRDNSTMVNSEDIFLLLCLK | 2.54 |
| NNSWIRNNSTMVNSEDIFLLLCLK | 2.32 |
| NNSWIRCNSTMVNSEDIFLLLCLK | 2.73 |
| NNSWIRWNSTMVNSEDIFLLLCLK | 2.95 |
| NNSWIRRNSTMVNSEDIFLLLCLK | 4.2 |

| Variant | protein stability index |
| --- | --- |
| NNSWIRGNSTMVNSEDIFLLLCLK | 3.14 |
| NNSWIRINSTMVNSEDIFLLLCLK | 2.71 |
| NNSWIRHNSTMVNSEDIFLLLCLK | 2.76 |
| NNSWIRLNSTMVNSEDIFLLLCLK | 2.55 |
| NNSWIRYNSTMVNSEDIFLLLCLK | 2.9 |
| NNSWIRPNSTMVNSEDIFLLLCLK | 3.02 |
| NNSWIRENSTMVNSEDIFLLLCLK | 2.84 |
| NNSWIGKNSTMVNSEDIFLLLCLK | 2.76 |
| NNSWIVKNSTMVNSEDIFLLLCLK | 2.73 |
| NNSWINKNSTMVNSEDIFLLLCLK | 3.63 |
| NNSWIIKNSTMVNSEDIFLLLCLK | 2.66 |
| NNSWISKNSTMVNSEDIFLLLCLK | 2.97 |
| NNSWIKKNSTMVNSEDIFLLLCLK | 3.09 |
| NNSWIFKNSTMVNSEDIFLLLCLK | 3.74 |
| NNSWIEKNSTMVNSEDIFLLLCLK | 1.89 |
| NNSWIYKNSTMVNSEDIFLLLCLK | 3.78 |
| NNSWIHKNSTMVNSEDIFLLLCLK | 3.75 |
| NNSWIMKNSTMVNSEDIFLLLCLK | 2.76 |
| NNSWIWKNSTMVNSEDIFLLLCLK | 3.13 |
| NNSWIPKNSTMVNSEDIFLLLCLK | 2.75 |
| NNSWIDKNSTMVNSEDIFLLLCLK | 3.82 |
| NNSWILKNSTMVNSEDIFLLLCLK | 2.03 |
